Results from publication PMC7990499, “eIF2B conformation and assembly state regulate the integrated stress response” (eLife, 2021).

Tests used:
[1] = biological target: eIF2B(αβδγε)2 decamer (human) (UniProt Q14232)
[2] = biological target: eIF2B(αβδγε)2 decamer (human) (UniProt Q14232); test: fluorescence polarisation; displacement of FAM-ISRIB (2.5 nM) from 100 nM eIF2B(αβδγε)2 by titrated eIF2, eIF2-P, eIF2α or eIF2α-P; 30 min at 22°C; 20 mM HEPES-KOH pH 7.5, 100 mM KCl, 5 mM MgCl2, 1 mM TCEP; also timecourses with PKR or λ phosphatase at 5.6 μM eIF2α/eIF2α-P

Q: For “human phosphorylated eIF2α (eIF2α-P) (from UniProt P05198 1-315) (natural protein)”, which t1/2 of BODIPY-FL-GDP exchange on eIF2 by 10 nM eIF2B(αβδγε)2 (GEF activity) at 0, 0.2, 1 and 2 μM eIF2α-P (control 2.4 min) [1] is on record?
A: The t1/2 of BODIPY-FL-GDP exchange on eIF2 by 10 nM eIF2B(αβδγε)2 (GEF activity) at 0, 0.2, 1 and 2 μM eIF2α-P (control 2.4 min) was 6.7 min.

Q: And the IC50 [2]?
A: The IC50 was 4000 nM.

Q: How did the t1/2 of BODIPY-FL-GDP exchange on eIF2 by 10 nM eIF2B(αβδγε)2 (GEF activity) at 0, 50, 100 and 250 nM eIF2-P (control 1.6 min) [1] turn out when “phosphorylated heterotrimeric human eIF2 (eIF2-P) (from UniProt P05198 1-315; P20042 1-333; P41091 1-472) (complex)” was run?
A: The t1/2 of BODIPY-FL-GDP exchange on eIF2 by 10 nM eIF2B(αβδγε)2 (GEF activity) at 0, 50, 100 and 250 nM eIF2-P (control 1.6 min) was 7.2 min.

Q: And the IC50 [2]?
A: Its IC50 is 210 nM.
